Test results as given in patent US20230406951A1 (Pfizer, published 2023).
Residue numbers refer to the chain shown, from its start. “And” between values parts separate entries of the source, which are not always exact repeats. Equal values may be shown once.

Legend:
[1] = biological target: T1, human TNFR2 (human, UniProt P20333 23-461); experiment: cell-based or functional assay
T1 sequence: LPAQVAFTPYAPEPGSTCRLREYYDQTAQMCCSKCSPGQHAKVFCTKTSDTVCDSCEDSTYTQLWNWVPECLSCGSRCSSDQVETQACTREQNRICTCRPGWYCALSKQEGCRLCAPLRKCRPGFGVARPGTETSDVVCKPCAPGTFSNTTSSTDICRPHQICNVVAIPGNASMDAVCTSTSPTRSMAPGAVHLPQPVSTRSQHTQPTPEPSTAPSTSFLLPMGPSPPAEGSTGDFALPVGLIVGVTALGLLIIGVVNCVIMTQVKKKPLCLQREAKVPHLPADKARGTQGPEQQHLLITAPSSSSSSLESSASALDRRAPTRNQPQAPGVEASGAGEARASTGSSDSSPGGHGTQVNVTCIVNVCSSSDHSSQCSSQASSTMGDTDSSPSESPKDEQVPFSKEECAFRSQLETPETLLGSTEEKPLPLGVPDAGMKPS

[2] = biological target: T2, cynomolgus monkey TNFR2 (cynomolgus monkey, UniProt P20333 23-461 (human entry)); experiment: cell-based or functional assay
T2 chain: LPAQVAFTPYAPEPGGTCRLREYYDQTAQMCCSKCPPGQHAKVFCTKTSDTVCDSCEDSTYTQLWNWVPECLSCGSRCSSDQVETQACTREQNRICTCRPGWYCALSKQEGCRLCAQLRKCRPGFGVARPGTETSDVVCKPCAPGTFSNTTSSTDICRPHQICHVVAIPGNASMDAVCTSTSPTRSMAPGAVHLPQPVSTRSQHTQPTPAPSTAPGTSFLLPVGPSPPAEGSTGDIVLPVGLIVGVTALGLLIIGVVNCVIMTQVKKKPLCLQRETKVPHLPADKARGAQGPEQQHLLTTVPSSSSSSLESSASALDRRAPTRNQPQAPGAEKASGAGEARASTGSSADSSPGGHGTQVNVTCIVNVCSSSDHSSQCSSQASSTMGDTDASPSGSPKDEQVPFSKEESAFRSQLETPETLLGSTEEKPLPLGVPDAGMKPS

[3] = biological target: T1, human TNFR2; experiment: cell-based or functional assay; remark: listed apart in the source
[4] = biological target: T2, cynomolgus monkey TNFR2; experiment: cell-based or functional assay
[5] = biological target: T3, biotinylated human TNFR2 (human, UniProt P20333 23-257, biotinylated); experiment: SPR (BIAcore), apparent affinity
T3 construct: Soluble biotinylated protein captured on a streptavidin chip for SPR; also called HuTNFR2
T3 sequence: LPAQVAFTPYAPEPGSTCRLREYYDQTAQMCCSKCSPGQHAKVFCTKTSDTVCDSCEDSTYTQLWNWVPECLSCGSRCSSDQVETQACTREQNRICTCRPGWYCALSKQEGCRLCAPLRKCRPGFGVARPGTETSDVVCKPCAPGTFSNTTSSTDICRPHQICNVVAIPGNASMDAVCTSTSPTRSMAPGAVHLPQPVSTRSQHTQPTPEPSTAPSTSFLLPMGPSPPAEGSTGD
Method: (§1) Increased avidity was confirmed by Surface Plasmon Resonance (SPR) using a BIAcore. Briefly, biotinylated human- or cyno-TNFR2 was captured on the surface of a streptavidin chip for 60 seconds at a flow rate of […]. […] The dissociation phase was then initiated with running buffer (HBS-EP+) injected for 600 seconds at […]. Data were analyzed using the Biacore Evaluation Software.

[6] = biological target: T4, biotinylated cyno TNFR2 (cynomolgus monkey, UniProt P20333 23-257 (human entry), limits assumed, biotinylated); experiment: SPR (BIAcore), biotinylated TNFR2 captured on streptavidin chip, TetraFab as analyte (apparent affinity)
T4 construct: Soluble biotinylated protein captured on a streptavidin chip for SPR; also called CyTNFR2
T4 chain: T3 sequence with S16G, S36P, P117Q, N164H, E210A, S216G, M223V
Method: as §1

[7] = biological target: T3, biotinylated human TNFR2; experiment: as above
Method: as §1

[8] = biological target: T1, human TNFR2; experiment: cell-based or functional assay; remark: listed apart in the source
[9] = biological target: T2, cynomolgus monkey TNFR2; experiment: cell-based or functional assay
[10] = biological target: T1, human TNFR2; experiment: cell-based or functional assay; remark: listed apart in the source
[11] = biological target: T1, human TNFR2; experiment: cell-based or functional assay; remark: listed apart in the source
[12] = biological target: T2, cynomolgus monkey TNFR2; experiment: cell-based or functional assay
[13] = biological target: T5, human TNFR2 (human, UniProt P20333 23-461); experiment: binding to human TNFR2 CHO cells, IgG format
T5 construct: expressed on the surface of CHO cells; also called HuTNFR2; TNFRSF1B
T5 sequence: T1 sequence

B1: TetraFab 2053 (antibody, human IgG1, kappa)
heavy: QVQLVQSGAEVKKPGASVKVSCKVSGFSFPSSGVDWVRQAPGQGLEWLGVTWGVGSTHYNQKFQGRVTITKDTSKSTVYMELSSLRSEDTAVYYCASGEWDEGFVYWGQGTLVTVSSASTKGPSVFPLAPSSKSTSGGTAALGCLVKDYFPEPVTVSWNSGALTSGVHTFPAVLQSSGLYSLSSVVTVPSSSLGTQTYICNVNHKPSNTKVDKKVEPKSCGGGGSQVQLVQSGAEVKKPGASVKVSCKVSGFSFPSSGVDWVRQAPGQGLEWLGVTWGVGSTHYNQKFQGRVTITKDTSKSTVYMELSSLRSEDTAVYYCASGEWDEGFVYWGQGTLVTVSSASTKGPSVFPLAPSSKSTSGGTAALGCLVKDYFPEPVTVSWNSGALTSGVHTFPAVLQSSGLYSLSSVVTVPSSSLGTQTYICNVNHKPSNTKVDKKVEPKSCDKTHTCPPCPAPEAAGAPSVFLFPPKPKDTLMISRTPEVTCVVVDVSHEDPEVKFNWYVDGVEVHNAKTKPREEQYNSTYRVVSVLTVLHQDWLNGKEYKCKVSNKALPAPIEKTISKAKGQPREPQVYTLPPSREEMTKNQVSLTCLVKGFYPSDIAVEWESNGQPENNYKTTPPVLDSDGSFFLYSKLTVDKSRWQQGNVFSCSVMHEALHNHYTQKSLSLSPGK
light: DIQLTQSPSFLSASVGDRVTITCKASQNVGTAVAWYQQKPGKAPKLLIYAASTLQSGVPSRFSGSGSGTEFTLTISSLQPEDFATYYCQQYSSYPLTFGGGTKVEIKRTVAAPSVFIFPPSDEQLKSGVTASVVCLLNNFYPREAKVQWKVDNALQSGNSQESVTEQDSKDSTYSLSSTLTLSKADYEKHKVYACEVTHQGLSSPVTKSFNRGEC
notes: also called TF2053
Human EC50, IKBa degradation in expanded Tregs, donor Human D23 [1]: 0.0478 nM | Human EC50, IKBa degradation in expanded Tregs, donor Human D24 [1]: 0.00575 nM | Human EC50, IKBa degradation in expanded Tregs, donor Human D28 [1]: 0.02 nM and 0.0179 nM | Human EC50, IKBa degradation in expanded Tregs, donor Human D32 [1]: 0.0373 nM | Cyno EC50, IKBa degradation in expanded Tregs, donor Cyno3 [2]: 2.25 nM | Cyno EC50, IKBa degradation in expanded Tregs, donor Cyno 16-477 [2]: 0.118 nM | Cyno EC50, IKBa degradation in expanded Tregs, donor Cyno 16-873 [2]: 0.0538 nM | Cyno EC50, IKBa degradation in expanded Tregs, donor Cyno 18-7469 [2]: 0.4 nM | Cyno EC50, IKBa degradation in expanded Tregs, donor Cyno 18-7473 [2]: 0.155 nM | Human EC50, OX-40 up-regulation on splenic Treg, donor BioIVT #BRH1515663 [3]: 0.018 nM | Human EC50, OX-40 up-regulation on splenic Treg, donor ZenBio #072518 [3]: 0.047 nM | Cyno EC50, OX-40 up-regulation on splenic Treg, donor 17-5215 [4]: 1.75 nM | Cyno EC50, OX-40 up-regulation on splenic Treg, donor #31 [4]: 0.799 nM | Cyno EC50, OX-40 up-regulation on splenic Treg, donor #34 [4]: 0.905 nM | Cyno EC50, OX-40 up-regulation on splenic Treg, donor TA1 [4]: 0.642 nM | Cyno EC50, OX-40 up-regulation on splenic Treg, donor TA2 [4]: 0.692 nM | fold improvement of KD compared to its IgG counterparts 854 or 1765 [5]: 5 fold | Kd [6]: 0.61 nM | koff [6]: 0.00706 s⁻¹ | kon [6]: 1.15e+07 M⁻¹ s⁻¹ | Kd [7]: 0.06 nM | koff [7]: 0.000473 s⁻¹ | kon [7]: 8.1e+06 M⁻¹ s⁻¹ | EC50 HuPBMC (ICAM-1 up-regulation) [8]: 0.116 µg/mL | EC50 CyPBMC (CD25+/Ki67+ of CD4+ cells) [9]: 5.95 µg/mL | EC50 Jurkat [10]: 0.037 µg/mL | fold improvement of EC50 for up-regulation of ICAM-1 against 854 and 1765 [11]: 10 fold | fold improvement of Jurkat EC50 compared to both 854 and 1765 [11]: > 10 fold | mean EC50 for IKBa in human expanded Tregs [11]: 0.026 nM | mean EC50 for OX-40 upregulation on human splenic Treg [11]: 0.033 nM | loss of potency in cyno versus human, IKBa degradation [12]: > 5 fold | mean EC50 for IKBa in cyno expanded Tregs [12]: 0.145 nM | mean EC50 for upregulation of OX-40 in cyno splenic Treg [12]: 0.958 nM

B2: GBT-TNFR2-1765 (antibody, human IgG2, kappa, V domains shown)
VH: QVQLVQSGAEVKKPGASVKVSCKVSGFSFPSSGVDWVRQAPGQGLEWLGVTWGVGSTHYNQKFQGRVTITKDTSKSTVYMELSSLRSEDTAVYYCASGEWDEGFVYWGQGTLVTVSS
VL: DIQLTQSPSFLSASVGDRVTITCKASQNVGTAVAWYQQKPGKAPKLLIYAASTLQSGVPSRFSGSGSGTEFTLTISSLQPEDFATYYCQQYSSYPLTFGGGTKVEIKR
EC50 [13]: 0.67 nM
